US20260077065A1, “Compositions and Methods for Assessing Kinase Activity” (The Board of Trustees of the Leland Stanford Junior …, priority 2022, published 2026)

B1: tKiMBI: ERK KiMBI with N-terminal tdTomato; SEQ ID NO:4 (protein)
chain: MVSKGEEVIKEFMRFKVRMEGSMNGHEFEIEGEGEGRPYEGTQTAKLKVTKGGPLPFAWDILSPQFMYGSKAYVKHPADIPDYKKLSFPEGFKWERVMNFEDGGLVTVTQDSSLQDGTLIYKVKMRGTNFPPDGPVMQKKTMGWEASTERLYPRDGVLKGEIHQALKLKDGGHYLVEFKTIYMAKKPVQLPGYYYVDTKLDITSHNEDYTIVEQYERSEGRHHLFLGHGTGSTGSGSSGTASSEDNNMAVIKEFMRFKVRMEGSMNGHEFEIEGEGEGRPYEGTQTAKLKVTKGGPLPFAWDILSPQFMYGSKAYVKHPADIPDYKKLSFPEGFKWERVMNFEDGGLVTVTQDSSLQDGTLIYKVKMRGTNFPPDGPVMQKKTMGWEASTERLYPRDGVLKGEIHQALKLKDGGHYLVEFKTIYMAKKPVQLPGYYYVDTKLDITSHNEDYTIVEQYERSEGRHHLFRLEDFVGDWEQTAAYNLDQVLEQGGVSSLLQNLAVSVTPIQRIVRSGENALKIDIHVIIPYEGLSADQMAQIEEVFKVVYPVDDHHFKVILPYGTLVIDGVTPNMLNYFGRPYEGIAVFDGKKITVTGTLWNGNKIIDERLITPDGSMLFRVTINSIMADEEKLPPGWEKRMSRSSGRVYYFNHITNASQWERPSGNSSSGGKNGQGEPARVTGYRLFEPDSPRTPVDKAKLSFQFP
B2: bKiMBI: ERK blue KiMBI, WW F25A; SEQ ID NO:2 (protein)
chain: MVSKGEELIKENMRSKLYLEGSVNGHQFKCTHEGEGKPYEGKQTNRIKVVEGGPLPFAFDILATHFMYGSKVFIKYPADLPDYFKQSFPEGFTWERVMVFEDGGVLTATQDTSLQDGELIYNVKVRGVNFPANGPVMQKKTLGWEPSTETMYPADGGLEGRCDKALKLVGGGHLHVNFKTTYKSKKPVKMPGVHYVDRRLERIKEADNETYVEQYEHAVARYSNLGGGFTLEDFVGDWEQTAAYNLDQVLEQGGVSSLLQNLAVSVTPIQRIVRSGENALKIDIHVIIPYEGLSADQMAQIEEVFKVVYPVDDHHFKVILPYGTLVIDGVTPNMLNYFGRPYEGIAVFDGKKITVTGTLWNGNKIIDERLITPDGSMLFRVTINSIMADEEKLPPGWEKRMSRSSGRVYYANHITNASQWERPSGNSSSGGKNGQGEPARVTGYRLFEPDSPRTPVDKAKLSFQFP

How the values were obtained:
ERK [1] = experiment: ERK KiMBI cell-based bioluminescent assay, HEK293A cells co-transfected with caMEK; conditions: FIG. 5d
Text: To develop a luciferase reporter protein whose activity can be activated by ERK inhibition, it was hypothesized that NanoLuc luciferase catalytic activity could be modulated through large ERK-induced conformational changes. Created and tested were fusion proteins of various topologies (FIG. 2a) comprising the NanoLuc NanoBiT fragments, an ERK substrate peptide from Cdc25C^7, and a proline-directed WW phospho-binding domain (WW)^8 from Pin1. In particular, an arrangement was postulated in which binding of phosphorylated substrate (pSub) to WW would force the SmBiT fragment to adopt an unfavorable conformation for LgBiT complementation, would show low luminescence with active ERK and high luminescence with inhibited ERK (FIG. 2b). […]
In vitro cell-based bioluminescent assay. […] Then, for assaying luminescence, Nano-Glo live cell assay system (Promega) was used following manufacturer's instructions. Time-lapse live luminescence was recorded on Safire-2 microplate reader (Tecan) with 100 ms integration and one read per min for 20 min. Luminescence spectrum was measured on a Varioskan LUX multimode microplate reader (Thermo Scientific) using the spectral scanning protocol with 1 s integration for each wavelength at 400-680 nm (1 nm per data point).

ERK [2] = experiment: bKiMBI bioluminescence in cancer cell lines U87, U87-EGFRvIII, SK-OV-3; assay type: cell-based, human; conditions: SK-OV-3 cells
Text: Endogenous ERK activity in these cell lines appeared to be only partially activated, as co-expressing caMEK further suppressed basal KiMBI signal. […] This provides additional evidence that KiMBI responds positively to ERK inhibition, and argues against inhibitors directly binding KiMBIs to enhance NanoLuc assembly or catalysis. […] Positive KiMBI responses must actually overcome this tendency of kinase inhibitors to suppress bioluminescence.
In vitro cell-based bioluminescent assay. Cells were seeded into 96-well Lumitrac plate (Greiner Bio-One) at a density of 1.5-2×10^4 cells per well. After 24 h, cells were transiently transfected with KiMBI-expressing plasmids (5-10 ng per well) with or without caMEK-expressing plasmids (50 ng per well, empty pcDNA3.1 as negative control to keep total transfected DNA amount consistent) using lipofectamine 3000 (Invitrogen) following manufacturer's instructions. […] Then, for assaying luminescence, Nano-Glo live cell assay system (Promega) was used following manufacturer's instructions. Time-lapse live luminescence was recorded on Safire-2 microplate reader (Tecan) with 100 ms integration and one read per min for 20 min. Luminescence spectrum was measured on a Varioskan LUX multimode microplate reader (Thermo Scientific) using the spectral scanning protocol with 1 s integration for each wavelength at 400-680 nm (1 nm per data point).

| Molecule | time to full induction of reporter by kinase inhibitor (ERK [1]) [h] | bKiMBI response (brightness increase) after ERK inhibition (ERK [2]) [fold] |
| --- | --- | --- |
| B1 | ~1 | – |
| B2 | – | ~2.5 |
